This data set concerns the molecule itself. The data set can be described thus: pull-down; GST- and MBP-tagged TMEM25-ECR incubated for 1 h at 4 °C in 150 mM NaCl, 0.1% Triton X-100, 20 mM Tris-HCl pH 7.6; glutathione-Sepharose beads; CBB staining or anti-MBP immunoblot. (In western blotting, separated proteins are transferred to a membrane and probed.)

B1: TMEM25-ECR (residues 27–220), GST- or MBP-tagged (domain or fragment, human, UniProt Q86YD3 27-220, looked up)
chain: ELEPQIDGQTWAERALRENERHAFTCRVAGGPGTPRLAWYLDGQLQEASTSRLLSVGGEAFSGGTSTFTVTAHRAQHELNCSLQDPRSGRSANASVILNVQFKPEIAQVGAKYQEAQGPGLLVVLFALVRANPPANVTWIDQDGPVTVNTSDFLVLDAQNYPWLTNHTVQLQLRSLAHNLSVVATNDVGVTSAS
notes: extracellular region (ECR), residues 27–220; bacterially expressed, non-glycosylated; also called GST–TMEM25-ECR; MBP–TMEM25-ECR; source: E. coli BL21, purified (glutathione-Sepharose 4B or amylose resin)
For the protein B1, the binding result is “binds”.

These data come from publication PMC10897455, “TMEM25 is a Par3-binding protein that attenuates claudin assembly during tight junction development” (EMBO Reports, 2023).
